System: MS2 coat protein
Experiment: apparent KD of MS2 coat protein; designed switch direction (-1 OFF switch, 1 ON switch): -1; higher = weaker reporter binding
How it was run: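 The reported apparent KD is a per-design median over clusters, from curve fits of normalised cluster fluorescence. Protein titrations used SNAP-549-labelled MS2 coat protein, doubled from 0.7 or 1.5 nM to 3 µM, in Tris-HCl pH 7.5 buffer with KCl, MgCl2, BSA, DTT, tRNA and Tween-20, with no input, 200 uM small-molecule ligand, or an oligonucleotide input. The RNA switches were transcribed on Illumina chips by stalled E. coli RNA polymerase.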

[1] = Eterna round: R95, input ligand: microRNA oligo, concentration not stated
[2] = Eterna round: R95, input ligand: FMN 200 uM
[3] = Eterna round: R95, input ligand: none
[4] = input ligand: microRNA oligo, concentration not stated

Sequence	apparent KD of MS2 coat protein (input ligand: FMN 200 uM) [nM]	apparent KD of MS2 coat protein (input ligand: none) [nM]	apparent KD of MS2 coat protein [1] [nM]	apparent KD of MS2 coat protein [2] [nM]	apparent KD of MS2 coat protein [3] [nM]	apparent KD of MS2 coat protein [4] [nM]
GGCCUUCCACGAGCUUUUUACAUGAGGAUCACCCAUGUGGUUUUUAGUCUUAUCCCGGGCCCGCUGUCGGGCCCGGG [-32.2, -52.8, A 13%] (Eterna round: R97, puzzle: Sensor, turn-off variant 1)	29.1	33				
CCAUACCGAGGAUAUACAUGAGGAUCACCCAUGUCAAAACCACGUGUACGGCGGUCUUGUAGAAGGCGGAAAUA [Onbisodi] (puzzle: Exclusion 3)			9.99			
AAGUCGACGGUGAGGAUAUUAGUUGAACGACAGAUUAAGAAGGUACAUGAGGAUCACCCAUGUGGGUAACGUUG [Brourd's EX4 #77] (Eterna round: R97, puzzle: Brourd's mod of Exclusion 4)	76.3	107				
CUAUUACGAGGAUAUGAUUUAAAUAACAUGAGGAUCACCCAUGUUUUUACGUUAUUUUAUUUAGAAGGCGUAUAGU [JR_E5_Sub029] (puzzle: Exclusion 5)			42			
GGGCUGUCAGGAUAUGGGCCCGGGCCCGAAAGGGUUUGGGCCCAGAAGGGACAUGAGGAUCACCCAUGUGGCCC [-43.8, -42.8 kcal, A 20%, 5b-0] (Eterna round: R97, puzzle: Exclusion 4)	34.2	34.5				
GGUCUGCGAGGAUAUACAUGAGGAUCACCCAUGUGCGAGAUACUAGUGAGGUCGGUUGGUAGAAGGCGCGGACG [JL-ex3-2.07 salish99 mod] (puzzle: Exclusion 3)			37.1	58.8	55.6	
GGAUAUAACGUAGGAUAUGAGCGCAACUGACGAUCAGAAGGACGACAUGAGGAUCACCCAUGUGAUCUAUCAAUAUUAUACAUG [Prohibition 95 - Jieux - Exclusion NG 1] (Eterna round: R96, puzzle: Exclusion NG 1)	590	977				495
CUCCUCAUGGCGCCUAAACACAUGAGGAUCACCCAUGUACAGGCUUUUCGCCGUCUUAUAAUAAAACCGAGGAUGCG [Soislebice] (puzzle: Sensor v3, turn-off variant 1)			300	45.6	47.8	
GGUCUACAUGAGGAUCACCCAUGUAAGGAUAUCGUCACUGGAGCUGCGGCUCCAGUGACGAGAAGGUACGUAAU [E1/12-A3] (Eterna round: R97, puzzle: Exclusion 1)	33.7	32.4				
AAUUAAUAUCAGGAUAUGACGUGCGAUAGCACGUCAGAAGGGAUGACAUGAGGAUCACCCAUGUGAUCAAUUAA [E6/1-A4] (Eterna round: R97, puzzle: Exclusion 6)	150	33				
CCAUGGGAGCGAGGAUAUAGCCCAUGGGAAGAGCUAGAAGGCGCUGACAUGAGGAUCACCCAUGUGUUCAUGAGGAGGUGGACA (Eterna round: R96, puzzle: Exclusion NG 1)	292	173				128
AAGGUGUUAGGAUAUCGUAGUUUGAGGCAGACGGGAUUUUGCGAGAAGGAACAUGAGGAUCACCCAUGUAGGAU [JR_Exclu4_Sub040] (puzzle: Exclusion 4)			25.9			
GAAUAGGGAGGAUAUCCAAUAUAUGACAUGAGGAUCACCCAUGUUUCCACUCGUACCUCCGGAGAAGGCCCAUAAA [Ex5 #4] (Eterna round: R97, puzzle: Exclusion 5)	22.8	19.9				
AAAUAGCGAGGAUAUACUGUAUACGAAAGUAUACGCAUGGCACAUGAGGAUCACCCAUGUAGAAGGCGCUAUAA (Eterna round: R97, puzzle: Exclusion 2)	43.4	22.3				
CCAAGCUUCUUCAUUAUCCACAUGAGGAUCACCCAUGUCUUGGCAAUUAUGACCUGCCCGUCAGGAGCUCGUCUUAU [Sensor-V1 #38] (Eterna round: R97, puzzle: Sensor, turn-off variant 1)	806	951				
AGCAGACGAGGAUAUAAACGAUAUAACAUGAGGAUCACCCAUGUACGAUCGAUAGAUCGUUUAGAAGGCGUCUGCU [E5/9-A1] (Eterna round: R97, puzzle: Exclusion 5)	14.5	13.1				
GGUUGUUGUUUCCGUUCUUACAUGAGGAUCACCCAUGUUUCUUGUCGUGCUCGCGUUGCUCGUCUGGCUGUCUGUUG [salish99_TOv1_r3_071] (puzzle: Sensor v3, turn-off variant 1)			40.2	52.3	67.7	

Sequence	apparent KD of MS2 coat protein (input ligand: FMN 200 uM) [nM]	apparent KD of MS2 coat protein (input ligand: none) [nM]	apparent KD of MS2 coat protein [1] [nM]	apparent KD of MS2 coat protein [2] [nM]	apparent KD of MS2 coat protein [3] [nM]	apparent KD of MS2 coat protein [4] [nM]
GGUCUACAUGAGGAUCACCCAUGUAAGGAUAUCGUCACUGGAGCUGCGGCUCCAGUGACGAGAAGGUGCAUAAU [E1/11-A3] (Eterna round: R97, puzzle: Exclusion 1)	39.4	30.8				
UUUAAUCGUGACAUGGGUGACAUGAGGAUCACCCAUGUCACAAGCUUCUUGCUCGUCUUAUAAUUAACCCAUGUCAC [LRO Sensor-off var1-12 mod of Stov1-13-A1 by Brourd] (Eterna round: R97, puzzle: Sensor, turn-off variant 1)	18.8	18.3				
GCCUGUGCCCUAGGAUAUCGCCCAGCCAAUGGAUGAGAAGGAGGCGGGUGAAACAUGAGGAUCACCCAUGUAAACGCACAAGCA [Inusri] (Eterna round: R96, puzzle: Exclusion NG 1)	102	22.7				14.5
AGUAACUAUCACGAAAGUGAUAGUUACAAUAGCAGUGGAACAUGAGGAUCACCCAUGUCCUCAUUUGCUCGUCUUAU [Sensor 3 - 22] (puzzle: Sensor v3, turn-off variant 2)			21.6	36.2	38.4	
GGAUAAAACUGAGGAUAUGAGGAGAGAGAGAGAUCAGAAGGCAGACAUGAGGAUCACCCAUGUGAGUUCUCGAUAAGAAACACG [Prohibition 56 - Jieux - Exclusion NG 1] (Eterna round: R96, puzzle: Exclusion NG 1)	58.9	38.3				30.7
UUUAGUUCAGGAUAUGUAGAUUUUAACAUGAGGAUCACCCAUGUAGAUCCUGAAUUAACUACAGAAGGGAACAUUG [Exclusion 5: 2:b] (puzzle: Exclusion 5)			18.2	50.1	16.5	
GUGCAACAUGAGGAUCACCCAUGUUAGGAUAUGUCCUUGGAGACGCACUAGCUCUGAGACAGAAGGGACAGAGG [Eternabot (Original) Solution 34] (Eterna round: R97, puzzle: Exclusion 1)	69.9	51.2				
GGUGCGUAUGUGAGGAUAUGCUGGUCCUUGGCUCGGCAGAAGGCACAUGAGGAUCACCCAUGUGGUGUCGUACC [salish99_Bmod_ex4_054] (puzzle: Brourd's mod of Exclusion 4)			141			
UUCGUGCUGCUUUGCUGUACGAGUACAUGAGGAUCACCCAUGUAGGAUAUGGUACGCUUUGCGUGCUAGAAGGAUAUGUGUAGC [salish99_ExNG3_r04_505] (Eterna round: R96, puzzle: Exclusion NG 3)	26.7	25.4				18.9
CGAUGUAACACAGGAUAUCAUCGCAACUGACGUUGAGAAGGGUGACAUGAGGAUCACCCAUGUGAUUUCUCAAUAUUAUACAUC [Prohibition 82 - Jieux - Exclusion NG 1] (Eterna round: R96, puzzle: Exclusion NG 1)	715	1390				830
CACCGUUACGUAGGAUAUAGUACAUGAGGAUCACCCAUGUAAUAAAUGAGAAUUUCGGAUGUAUGCUAGAAGGACGAAAUCGGC [Ostricism 50 - Jieux - Exclusion NG 2] (Eterna round: R96, puzzle: Exclusion NG 2)						39.9
GGUCCUUCUGUCAGGAUAUCCAGUAUCAGACAGCAGGAGAAGGGACAUGAGGAUCACCCAUGUAAUAAGAAGAA [Onrean] (Eterna round: R97, puzzle: Brourd's mod of Exclusion 4)	51.9	27.6				
UAGCAUUGCCUUUGGUAGUGCUUUACAUGAGGAUCACCCAUGUAGGAUAUGGUAGGCAAAGCUUACCAGAAGGACAUGAUAAUU [Mat - Exclusion NG 3 - Mod of JL - D11] (Eterna round: R96, puzzle: Exclusion NG 3)	198	76				51.6
CCAUGUUAGCAGGAUAUGCAAUAAAUCUUUUAAGCAGAAGGGCUUACAUGAGGAUCACCCAUGUAUAAUUUCAA [JR_E6_Sub080] (puzzle: Exclusion 6)			42.6			
UGCGGGCUUUUGAGACCUCACAUGAGGAUCACCCAUGUGCUUGUCUUGUGGGUGGGUAGGUCGUUGGCUGACUCACG [Sensor-V1 #98] (Eterna round: R97, puzzle: Sensor, turn-off variant 1)	68.2	68.9				
UACGAAUUAGGAUAUGCAAUGGGCUCGCUUUCCUUCGAUAAACUUGAGGAUCACCCAAGUAGAAGGAAUUUGUA [Mod 37 - Jieux - Exclusion 2] (Eterna round: R97, puzzle: Exclusion 2)	14.8	12.9				
CUGGAAAACGAGGAUAUGCACCGGCUCGCUGACGCAGAAGGCGACACAUGAGGAUCACCCAUGUCGGUACGCGA [salish99_ex6_r004_449] (Eterna round: R97, puzzle: Exclusion 6)	17.2	18.8				
